Results from US20120316071A1 (published 2012).
Residue numbers refer to the chain shown, from its start. Names may count otherwise.

B1: Fab VH5-51_IGHD5-18*01>3_IGHJ4*01 G100K/G104T G35T & V3-4_IGLJ1*01 (Fab, V domains shown)
VH: EVQLVQSGAEVKKPGESLKISCKGSGYSFTSYWITWVRQMPGKGLEWMGIIYPGDSDTRYSPSFQGQVTISADKSISTAYLQWSSLKASDTAMYYCARRKYSYTYDYFDYWGQGTLVTVSS
VL: QTVVTQEPSFSVSPGGTVTLTCGLSSGSVSTSYYPSWYQQTPGQAPRTLIYSTNTRSSGVPDRFSGSILGNKAALTITGAQADDESDYYCVLYMGSGISYVFGTGTKVTVL
notes: Fab from E. coli: VH-CH1 from Plasmid A with His6 and Flag tags, VL with lambda CL from Plasmid E; also called KT G35T
B2: Fab VH5-51_IGHD5-18*01>3_IGHJ4*01 G100K/G104T S28R & V3-4_IGLJ1*01 (Fab, V domains shown)
VH: B1 VH with S28R, T35G
VL: B1 VL
notes: Fab from E. coli: VH-CH1 from Plasmid A with His6 and Flag tags, VL with lambda CL from Plasmid E; also called KT S28R
B3: Fab VH5-51_IGHD5-18*01>3_IGHJ4*01 G100K/G104T S28N & V3-4_IGLJ1*01 (Fab, V domains shown)
VH: B1 VH with S28N, T35G
VL: B1 VL
notes: Fab from E. coli: VH-CH1 from Plasmid A with His6 and Flag tags, VL with lambda CL from Plasmid E; also called KT S28N
B4: Fab VH5-51_IGHD5-18*01>3_IGHJ4*01 G100K/G104T G35V & V3-4_IGLJ1*01 (Fab, V domains shown)
VH: B1 VH with T35V
VL: B1 VL
notes: Fab from E. coli: VH-CH1 from Plasmid A with His6 and Flag tags, VL with lambda CL from Plasmid E; also called KT G35V
B5: Fab VH5-51_IGHD5-18*01>3_IGHJ4*01 G100K/G104T G35A & V3-4_IGLJ1*01 (Fab, V domains shown)
VH: B1 VH with T35A
VL: B1 VL
notes: Fab from E. coli: VH-CH1 from Plasmid A with His6 and Flag tags, VL with lambda CL from Plasmid E; also called KT G35A
B6: Fab VH1-46_IGHD6-6*01_IGHJ1*01 S102A/S103P/S104F/H111F (APFF) & L6_IGKJ1*01 S76L (Fab, V domains shown)
VH: QVQLVQSGAEVKKPGASVKVSCKASGYTFTSYYMHWVRQAPGQGLEWMGIINPSGGSTSYAQKFQGRVTMTRDTSTSTVYMELSSLRSEDTAVYYCAREEYAPFSAEYFQFWGQGTLVTVSS
VL: EIVLTQSPATLSLSPGERATLSCRASQSVSSYLAWYQQKPGQAPRLLIYDASNRATGIPARFSGSGSGTDFTLTILSLEPEDFAVYYCQQRSNWPPWTFGQGTKVEIKR
notes: Fab made in E. coli: VH in plasmid A (CH1, His6 and Flag tags), VL in plasmid C (kappa CL); also called H:APFF & L6_IGKJ1*01 S76L
B7: Fab VH1-46_IGHD6-6*01_IGHJ1*01 S102A/S103P/S104F/H111F (APFF) & L6_IGKJ1*01 S76T (Fab, V domains shown)
VH: B6 VH
VL: B6 VL with L76T
notes: Fab made in E. coli: VH in plasmid A (CH1, His6 and Flag tags), VL in plasmid C (kappa CL); also called H:APFF & L6_IGKJ1*01 S76T
B8: Fab VH1-46_IGHD6-6*01_IGHJ1*01 S102A/S103P/S104F/H111F (APFF) & L6_IGKJ1*01 (Fab, V domains shown)
VH: B6 VH
VL: not shown
notes: Fab made in E. coli: VH in plasmid A (CH1, His6 and Flag tags), VL in plasmid C (kappa CL); also called H:APFF & L:wt; APFF mutant
B9: Fab VH1-46_IGHD6-6*01_IGHJ1*01 S102A/S103P/S104F/H111F (APFF) & L6_IGKJ1*01 S76Y (Fab, V domains shown)
VH: B6 VH
VL: B6 VL with L76Y
notes: Fab made in E. coli: VH in plasmid A (CH1, His6 and Flag tags), VL in plasmid C (kappa CL); also called H:APFF & L6_IGKJ1*01 S76Y
B10: Fab VH1-46_IGHD6-6*01_IGHJ1*01 S102A/S103P/S104F/H111F (APFF) & L6_IGKJ1*01 S76G (Fab, V domains shown)
VH: B6 VH
VL: B6 VL with L76G
notes: Fab made in E. coli: VH in plasmid A (CH1, His6 and Flag tags), VL in plasmid C (kappa CL); also called H:APFF & L6_IGKJ1*01 S76G
B11: Fab VH5-51_IGHD5-18*01>3_IGHJ4*01 G100K/G104T/G24L/S28R/G35V (KT LRV) & V3-4_IGLJ1*01 (Fab, V domains shown)
VH: B1 VH with G24L, S28R, T35V
VL: B1 VL
notes: Tested as Fab; CH1 with His6/Flag tags (plasmid A) and lambda CL (plasmid E) come from the expression vectors
B12: Fab VH5-51_IGHD5-18*01>3_IGHJ4*01 G100K/G104T/G24A/S28R/G35V (KT ARV) & V3-4_IGLJ1*01 (Fab, V domains shown)
VH: B1 VH with G24A, S28R, T35V
VL: B1 VL
notes: as for B11
B13: Fab VH5-51_IGHD5-18*01>3_IGHJ4*01 G100K/G104T/G24T/S28R/G35V (KT TRV) & V3-4_IGLJ1*01 (Fab, V domains shown)
VH: B1 VH with G24T, S28R, T35V
VL: B1 VL
notes: Tested as Fab; CH1 with His6/Flag tags (plasmid A) and lambda CL (plasmid E) come from the expression vectors; also called H:KT TRV & L:wt

molecular target: T1, Recombinant Human DLL4 (delta-like protein 4) (human, UniProt Q9NR61 27-524); experiment: ELISA, Fab on plate-coated DLL4
T1 construct: also called rHuman DLL4; Delta-like 4

Row | ELISA (Signal-Noise) | Binder
1 | 0.07 | B1
2 | 0.29 | B2
3 | 0.09 | B3
4 | 0.09 | B4
5 | 0.06 | B5

molecular target: T1, Recombinant Human DLL4 (delta-like …); experiment: ECL (MSD) binding assay, Fab on immobilized DLL4

Row | ECL signal | Binder
6 | 14500 | B1
7 | 51400 | B2
8 | 17300 | B3
9 | 21200 | B4
10 | 19700 | B5

molecular target: T2, Recombinant Human DLL4 (delta-like protein 4) (human, UniProt Q9NR61 27-524); experiment: ECL (Meso Scale Discovery) binding assay on immobilised DLL4, Fab 10 nM
T2 construct: also called rHuman DLL4

Row | Signal [10 nM Fab] | Binder
11 | 13700 | B6
12 | 15700 | B7
13 | 13500 | B8
14 | 14800 | B9
15 | 13400 | B10

molecular target: T3, Recombinant Human DLL4 (R&D Systems Cat#1506-D4/CF) (human, UniProt Q9NR61 27-524); experiment: ECL (MSD) binding assay, Fab on immobilized recombinant human DLL4
T3 construct: also called rHuman DLL4; delta-like protein 4

Row | ECL signal | Binder
16 | 15300 | B11
17 | 17400 | B12
18 | 26100 | B13
